Measurements as given in paper PMC6479498 (Molecules, 2019).

Key:
[1] = test system: CC(=O)C(=O)O; experiment: purified protein; type: biochemical, Aspergillus terreus; conditions: 2.5 mM (R)-α-MBA, 0.1 mM PLP, 0.25% DMSO, 50 mM sodium phosphate pH 8.0
[2] = test system: C[C@@H](N)c1ccccc1; experiment: purified protein; type: biochemical, Aspergillus terreus; conditions: 2.5 mM pyruvate, 0.1 mM PLP, 0.25% DMSO, 50 mM sodium phosphate pH 8.0
[3] = molecular target: T1, AT-ATA (WT-AT), (R)-selective amine transaminase (Aspergillus terreus, UniProt Q0C8G1); experiment: acetophenone formation at […] nm; type: biochemical; conditions: 2.5 mM (R)-α-MBA, 0.1 mM PLP, 0.25% DMSO, 50 mM sodium phosphate pH 8.0; read-out: Km^pyruvate
T1 construct: gene ATEG_10023
T1 sequence (Q0C8G1 1-325): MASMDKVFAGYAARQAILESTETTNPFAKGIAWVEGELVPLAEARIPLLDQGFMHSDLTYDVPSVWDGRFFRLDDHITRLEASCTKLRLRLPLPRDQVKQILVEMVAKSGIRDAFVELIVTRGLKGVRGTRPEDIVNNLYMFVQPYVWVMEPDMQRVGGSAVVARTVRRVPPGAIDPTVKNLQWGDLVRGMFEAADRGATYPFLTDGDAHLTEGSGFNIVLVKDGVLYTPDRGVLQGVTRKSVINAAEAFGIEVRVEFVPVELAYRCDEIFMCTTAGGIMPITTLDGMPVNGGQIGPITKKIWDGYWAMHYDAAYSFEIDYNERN

Compound	Km [1]	kcat [1]	kcat/Km [1]	Km [2]	kcat [2]	kcat/Km [2]	Km [3]
AT-ATA (WT-AT), (R)-selective amine transaminase (Aspergillus terreus NIH2624; L118A)	360 ± 50 µM	1.48 ± 0.05 s⁻¹	4150 M⁻¹ s⁻¹	180 ± 10 µM	1.46 ± 0.01 s⁻¹	7930 M⁻¹ s⁻¹	
AT-ATA (WT-AT), (R)-selective amine transaminase (Aspergillus terreus NIH2624; L118I)	280 ± 20 µM	0.82 ± 0.01 s⁻¹	2950 M⁻¹ s⁻¹	130 ± 10 µM	0.82 ± 0.01 s⁻¹	6400 M⁻¹ s⁻¹	
CC(=O)C(=O)O [pyruvate]							230 ± 20 µM
AT-ATA (WT-AT), (R)-selective amine transaminase (Aspergillus terreus NIH2624; L118T)	400 ± 20 µM			180 ± 10 µM	1.79 ± 0.02 s⁻¹	9980 M⁻¹ s⁻¹	
AT-ATA (WT-AT), (R)-selective amine transaminase (Aspergillus terreus NIH2624; L118V)	290 ± 20 µM	0.51 ± 0.01 s⁻¹	1760 M⁻¹ s⁻¹	160 ± 10 µM	0.57 ± 0.01 s⁻¹	3570 M⁻¹ s⁻¹	
